Measurements published in publication PMC4298044.
Each block holds one substance with its values, some of them ahead of it.

Assays:
[1] = biological target: soluble full-length APP (sAPPf) (human (endogenous in CSF)) (UniProt P05067); test: co-IP + ELISA; CSF of AD and NDC subjects measured by sandwich ELISA (IBL sAPPα, IBL sAPPβ, or Novex kit that detects sAPPf and sAPPα) before and after immunoprecipitation with Sigma-Ct or IBL-β; read-out is the loss from the sample
[2] = biological target: APP solubilized from human brain membranes (human (endogenous in brain frontal cortex)) (UniProt P05067); test: native gel or EMSA; blue native-PAGE, NativePAGE Novex 4-16% Bis-Tris gels, samples with G-250 additive and dodecylmaltoside; brain membrane extracts and CSF; immunoblot with anti-APP antibodies
[3] = biological target: APP solubilized from human brain membranes (human (endogenous in brain frontal cortex)) (UniProt P05067); test: sucrose density gradient ultracentrifugation; continuous 5-20% sucrose gradient, 0.15 M NaCl, 50 mM MgCl2, 0.5% Brij 97, 50 mM Tris-HCl pH 7.4; 250,000 x g, 4 hr, 4°C; fractions immunoblotted; markers β-galactosidase, catalase, alkaline phosphatase
[4] = biological target: sAPPβ (sAPP fragment generated after β-secretase cleavage) (human (endogenous in CSF)); test: co-IP + ELISA; CSF of AD and NDC subjects measured by sandwich ELISA (IBL sAPPα, IBL sAPPβ, or Novex kit that detects sAPPf and sAPPα) before and after immunoprecipitation with Sigma-Ct or IBL-β; read-out is the loss from the sample

percent decrease of the ELISA level after immunoprecipitation of sAPPf (Sigma-Ct) [1]: 33%
Substance: sAPPα (sAPP fragment generated after α-secretase cleavage) (domain or fragment)

percent decrease of the ELISA level after immunoprecipitation of sAPPf (Sigma-Ct) [1]: 27%
Substance: sAPPβ (sAPP fragment generated after β-secretase cleavage) (domain or fragment)

Substance: APP solubilized from human brain membranes (from UniProt P05067 18-770) (natural protein)
stoichiometry N [2]: 2
stoichiometry N [3]: 2

percent decrease of the ELISA level of sAPPf plus sAPPα after immunoprecipitation of sAPPβ (IBL-β) [4]: 89%
Substance: soluble full-length APP (sAPPf) (from UniProt P05067 18-770) (natural protein)
